Consider 3 molecules from paper PMC8319299, “PALI1 facilitates DNA and nucleosome binding by PRC2 and triggers an allosteric activation of catalysis”.

The target of data set [1] is PRC2-PALI1 PIR (Homo sapiens, UniProt Q15910-2;O75530;Q15022;Q09028;Q96JN0-3 1-751;1-441;1-739;1-425;1058-1250). Kind of data set: fluorescence anisotropy; 50 mM Tris-HCl pH 7.5 (25 C), 100 mM KCl, 2 mM 2-mercaptoethanol, 0.1 mg/mL BSA, 0.05% NP-40; FA at 30 C; nucleosome EMSA with 5% glycerol at 4 C (+5 ng/uL salmon sperm DNA for H2A-Cy5 probes); PALI1 PIR EMSA with 5% glycerol, binding at 30 C; probe 5 nM. The following applies: protein: recombinant, tags: His6-MBP (PreScission-cleavable), copies: 1;1;1;1;1, label: 3'-fluorescein; for Kd: hairpin, 46 bp stem. (In general: Polarisation of emitted light reports the rotation of a fluorescent probe.)
Sequence of PRC2-PALI1 PIR (Q15910 other isoform, or with tags, fused parts or gaps, chain 1 of 4): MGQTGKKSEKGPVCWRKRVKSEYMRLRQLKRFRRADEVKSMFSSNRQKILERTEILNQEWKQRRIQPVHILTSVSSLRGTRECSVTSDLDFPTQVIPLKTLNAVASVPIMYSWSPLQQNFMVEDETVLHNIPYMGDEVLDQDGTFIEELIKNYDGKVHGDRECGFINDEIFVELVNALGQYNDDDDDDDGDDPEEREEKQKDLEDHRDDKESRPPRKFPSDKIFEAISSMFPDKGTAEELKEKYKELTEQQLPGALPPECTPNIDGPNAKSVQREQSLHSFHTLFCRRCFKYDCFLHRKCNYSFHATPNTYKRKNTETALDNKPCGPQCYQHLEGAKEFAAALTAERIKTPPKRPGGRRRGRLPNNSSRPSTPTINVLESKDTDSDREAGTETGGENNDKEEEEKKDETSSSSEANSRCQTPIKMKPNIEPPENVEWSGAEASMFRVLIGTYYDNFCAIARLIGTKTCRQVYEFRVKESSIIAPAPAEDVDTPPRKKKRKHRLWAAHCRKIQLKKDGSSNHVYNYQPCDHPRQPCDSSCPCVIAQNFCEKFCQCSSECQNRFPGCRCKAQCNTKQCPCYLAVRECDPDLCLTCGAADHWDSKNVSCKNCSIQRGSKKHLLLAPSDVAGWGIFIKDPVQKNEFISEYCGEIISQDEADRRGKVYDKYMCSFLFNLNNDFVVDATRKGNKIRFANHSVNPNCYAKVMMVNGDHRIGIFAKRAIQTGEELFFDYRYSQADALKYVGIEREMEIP
Sequence of PRC2-PALI1 PIR (O75530 whole entry, chain 2 of 4): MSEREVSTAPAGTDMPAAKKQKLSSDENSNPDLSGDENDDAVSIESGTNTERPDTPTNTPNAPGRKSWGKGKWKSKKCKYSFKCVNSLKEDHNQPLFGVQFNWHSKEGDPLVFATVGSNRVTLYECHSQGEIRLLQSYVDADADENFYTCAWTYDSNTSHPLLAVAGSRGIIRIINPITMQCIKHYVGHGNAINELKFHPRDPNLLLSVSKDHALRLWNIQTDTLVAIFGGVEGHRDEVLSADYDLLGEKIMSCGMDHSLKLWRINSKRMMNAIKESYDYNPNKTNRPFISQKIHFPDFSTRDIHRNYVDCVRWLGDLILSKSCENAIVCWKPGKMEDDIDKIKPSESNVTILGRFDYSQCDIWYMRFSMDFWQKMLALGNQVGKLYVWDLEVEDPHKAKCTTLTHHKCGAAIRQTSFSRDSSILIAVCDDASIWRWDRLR
Sequence of PRC2-PALI1 PIR (Q15022 whole entry, chain 3 of 4): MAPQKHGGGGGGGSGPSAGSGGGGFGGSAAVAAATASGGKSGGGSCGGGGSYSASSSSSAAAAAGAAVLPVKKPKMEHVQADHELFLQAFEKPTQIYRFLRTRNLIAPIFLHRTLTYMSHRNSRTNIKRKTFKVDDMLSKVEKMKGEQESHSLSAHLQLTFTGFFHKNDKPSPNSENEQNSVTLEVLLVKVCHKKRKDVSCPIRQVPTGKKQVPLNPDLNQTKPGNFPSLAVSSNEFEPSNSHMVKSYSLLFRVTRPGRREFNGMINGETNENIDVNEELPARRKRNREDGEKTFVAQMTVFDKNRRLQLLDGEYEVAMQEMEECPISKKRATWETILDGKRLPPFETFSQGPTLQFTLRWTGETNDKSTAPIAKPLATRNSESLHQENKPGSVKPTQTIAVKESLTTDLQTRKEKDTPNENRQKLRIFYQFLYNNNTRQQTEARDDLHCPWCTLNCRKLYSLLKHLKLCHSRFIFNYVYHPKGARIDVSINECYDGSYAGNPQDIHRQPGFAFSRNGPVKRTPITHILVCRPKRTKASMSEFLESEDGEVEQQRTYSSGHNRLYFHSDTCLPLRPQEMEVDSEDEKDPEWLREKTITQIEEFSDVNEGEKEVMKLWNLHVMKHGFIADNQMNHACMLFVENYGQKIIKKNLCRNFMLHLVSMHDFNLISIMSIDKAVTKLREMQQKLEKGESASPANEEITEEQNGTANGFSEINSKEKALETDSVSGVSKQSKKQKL
Sequence of PRC2-PALI1 PIR (Q09028 whole entry, chain 4 of 4): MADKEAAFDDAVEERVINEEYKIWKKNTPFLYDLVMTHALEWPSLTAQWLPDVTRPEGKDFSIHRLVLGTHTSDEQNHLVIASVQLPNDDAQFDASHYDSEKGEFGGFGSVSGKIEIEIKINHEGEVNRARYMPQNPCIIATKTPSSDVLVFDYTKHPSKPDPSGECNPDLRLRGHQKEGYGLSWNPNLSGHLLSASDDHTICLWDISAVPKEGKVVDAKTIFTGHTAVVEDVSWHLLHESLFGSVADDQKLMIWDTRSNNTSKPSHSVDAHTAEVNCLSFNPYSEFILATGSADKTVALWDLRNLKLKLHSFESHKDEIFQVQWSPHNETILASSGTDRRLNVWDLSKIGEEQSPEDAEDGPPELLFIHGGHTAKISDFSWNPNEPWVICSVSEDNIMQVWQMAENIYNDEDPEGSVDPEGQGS

Data set [2] concerns the target T1, PALI1 PIR (Homo sapiens, UniProt Q96JN0-3 1058-1250).
T1 sequence: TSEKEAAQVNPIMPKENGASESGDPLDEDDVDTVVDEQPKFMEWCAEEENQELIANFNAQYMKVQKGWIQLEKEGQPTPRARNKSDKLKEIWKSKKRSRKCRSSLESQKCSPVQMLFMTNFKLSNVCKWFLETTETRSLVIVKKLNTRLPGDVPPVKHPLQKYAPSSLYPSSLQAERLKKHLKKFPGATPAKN
Description: EMSA; 50 mM Tris-HCl pH 7.5 (25 C), 100 mM KCl, 2 mM 2-mercaptoethanol, 0.1 mg/mL BSA, 0.05% NP-40; FA at 30 C; nucleosome EMSA with 5% glycerol at 4 C (+5 ng/uL salmon sperm DNA for H2A-Cy5 probes); PALI1 PIR EMSA with 5% glycerol, binding at 30 C; probe 5 nM. The following applies: protein: recombinant; tags: MBP removed by TEV; label: 3'-fluorescein; hairpin, 46 bp stem.

The target of data set [3] is PRC2 core (EZH2-EED-SUZ12-RBBP4) (Homo sapiens, UniProt Q15910-2;O75530;Q15022;Q09028 1-751;1-441;1-739;1-425). Kind of data set: fluorescence anisotropy; 50 mM Tris-HCl pH 7.5 (25 C), 100 mM KCl, 2 mM 2-mercaptoethanol, 0.1 mg/mL BSA, 0.05% NP-40; FA at 30 C; nucleosome EMSA with 5% glycerol at 4 C (+5 ng/uL salmon sperm DNA for H2A-Cy5 probes); PALI1 PIR EMSA with 5% glycerol, binding at 30 C; probe 5 nM. The following applies: protein: recombinant; tags: His6-MBP (PreScission-cleavable); copies: 1;1;1;1; label: 3'-fluorescein; G4.
Sequence of PRC2 core (EZH2-EED-SUZ12-RBBP4) (Q15910 other isoform, or with tags, fused parts or gaps, chain 1 of 4): as the sequence (Q15910 other isoform, or with tags, fused parts or gaps, chain 1 of 4) above
Sequence of PRC2 core (EZH2-EED-SUZ12-RBBP4) (O75530 whole entry, chain 2 of 4): as the sequence (O75530 whole entry, chain 2 of 4) above
Sequence of PRC2 core (EZH2-EED-SUZ12-RBBP4) (Q15022 whole entry, chain 3 of 4): as the sequence (Q15022 whole entry, chain 3 of 4) above
Sequence of PRC2 core (EZH2-EED-SUZ12-RBBP4) (Q09028 whole entry, chain 4 of 4): as the sequence (Q09028 whole entry, chain 4 of 4) above

B1: CpG46 (structured_DNA)
DNA: GGCGCCCTGCCCCGCCTCGCTCTGGCAGAGTGGGGAGCCAGCCGGCGCTAGCCGGCTGGCTCCCCACTCTGCCAGAGCGAGGCGGGGCAGGGCGCC
The Kd is the constant that tells how readily two partners part at equilibrium. Take B1: the Kd in data set [1] worked out at 155 ± 26 nM; in data set [2], 2300 ± 300 nM.

B2: CpG46 mt (structured_DNA)
DNA: AATATTTCATTTTATTCTATCTCAATGAGACAAAAGATTGATTAATGCTAATTAATCAATCTTTTGTCTCATTGAGATAGAATAAAATGAAATATT
Consider B2, for which the Kd in data set [1] stood at 73.7 ± 10 nM.

B3: G4 24 RNA (structured_RNA)
RNA: UUAGGGUUAGGGUUAGGGUUAGGG
In the case of B3, the binding result in data set [3] and in data set [1] (G4) was “binds” each time.
